Columns and labels:
Experiment in all cases: pull-down binding Z-score (relative to library population); higher = stronger binding
[1] = tested on: TO-N3 (biotin conjugate); details: RNA library: Library-2
Summary of the method: (§1)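 Heat-folded RNA library (1 μg, Cy5 or Cy3 end label, phosphate/NaCl/KCl buffer) was captured for 60 min at 25 °C on streptavidin beads displaying 100 pmol of biotin-conjugated small molecule, then washed three times. The bound fraction, eluted in hot SDS, was hybridised to a DNA barcode microarray at 55.5 °C for 20 h. Z-scores for binding were taken against the library mean and standard deviation after beads-only subtraction and trimmed averaging of replicate barcoded probes.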

[2] = tested on: TO-3-N3-2 (biotin conjugate); details: RNA library: Library-2
Summary of the method: as §1

[3] = tested on: TO-N3-2 (biotin conjugate); details: RNA library: Library-2
Summary of the method: as §1

[4] = tested on: G-clamp-N3 (biotin conjugate); details: RNA library: Library-1 (pre-miRNA loops + repeats)
Summary of the method: as §1

[5] = tested on: TO-3-N3 (biotin conjugate); details: RNA library: Library-2
Summary of the method: as §1

Row | Sequence | pull-down binding Z-score [1] | pull-down binding Z-score [2] | pull-down binding Z-score [3] | pull-down binding Z-score [4] | pull-down binding Z-score [5]
1 | GGUUCUCAGUCAGAACC [hsa-mir-6813] | -0.372 | -0.346 | -1.21 | 0.755 | -0.0211
2 | GGUUCUGGGGUGUAGACGCUGCUGGCCAGCC [hsa-mir-4707] | 0.587 | 0.282 | 0.971 | 1.08 | 0.287
3 | GGUUCUUCCCGAAGC [hsa-mir-4710] | 0.0409 | -0.22 | -0.359 | 0.205 | -0.0117
4 | GGUUGCUGGAGGUCAGC [hsa-mir-6871] | 0.489 | 0.233 | 0.785 | 0.0274 | 0.155
5 | GGUUGGCCGCUGACCCCCGCGGGGCCCCCGGCGGCC [hsa-mir-3195] | 0.0623 | -0.293 | 0.847 | 0.0226 | -0.103
6 | GGUUGGGGUGGGCUGCCUGUGGACCAAUC [hsa-mir-4525] | 2.44 | 1.06 | 1.94 | 0.722 | 2.14
7 | GGUUGUUAGAUAGACAACU [hsa-mir-4510] | 0.328 | 0.19 | -0.496 | 0.718 | 0.632
8 | GGUUGUUUAAUUAGGAACCAACU [hsa-mir-190b] | -0.293 | 0.0266 | -0.593 | -0.019 | -0.247
9 | GGUUUCCUUCGGGGCAGGUGGGGACUGCUCCUUUGGGAGGAAGGAGGAGGCC [hsa-mir-4453] | 2.34 | 1.96 | 2.11 | 1.28 | 2.21
10 | GGUUUCGGGCUGCC [hsa-mir-661] | 0.249 | 0.067 | 0.74 | 0.142 | 0.148
11 | GGUUUCUUAAAAUGGAAUCU [hsa-mir-1255b-1] | -0.413 | 0.0245 | -0.251 | 0.385 | -0.382
12 | GGUUUGCGCCUCAAGAAACC [hsa-mir-1255b-2] | -0.0954 | -0.306 | 0.521 | 0.436 | -0.187
13 | GGUUUUGCCAUCAUGCCAAAAGCU [hsa-mir-548v] | 0.277 | -0.0997 | 0.259 | -0.76 | 0.00688
14 | GGUUUUUACCAUUAAAACC [hsa-mir-548aw] | -1.01 | -0.448 | -1.44 | -0.37 | -0.656
15 | GUAAGAGAGACUCUCGCUUCCUGC [hsa-mir-874] | 0.169 | -0.291 | 0.462 | -1 | 0.0696
16 | GUAGAUUGAAAGCCCUAAUUUUAC [hsa-mir-3941] | -0.0427 | 0.306 | 0.452 | -0.805 | -0.486

Row | Sequence | pull-down binding Z-score [1] | pull-down binding Z-score [2] | pull-down binding Z-score [3] | pull-down binding Z-score [4] | pull-down binding Z-score [5]
17 | GUAGAUUUUAUGUCAC [hsa-mir-892b] | -0.00927 | -0.156 | 0.0365 | -0.748 | -0.000191
18 | GUAUACUGAGCUUAUGUAUGCAUCUGCAUAC [hsa-mir-5591] | 0.39 | 0.0113 | 0.0714 | 0.344 | 0.357
19 | GUAUGAGUGCCACAGAGCCGUCAUAA [hsa-mir-9-3] | 1.39 | -0.231 | 1.73 | -0.99 | 0.938
20 | GUAUGAGUGGUGUGGAGUCUUCAUAA [hsa-mir-9-1] | 0.292 | -0.08 | 0.298 | -0.511 | 0.179
21 | GUAUGAGUGUAUUGGUCUUCAUAA [hsa-mir-9-2] | 0.0907 | 0.203 | 0.481 | -0.373 | -0.226
22 | GUCACAAAUUCAAAUAAAGUGAG [hsa-mir-4693] | 1.03 | 0.544 | 0.598 | -1.04 | 1.05
23 | GUCACCAGCCCUCAUGUACUUGUGAC [hsa-mir-6820] | 0.222 | -0.289 | -0.281 | -1.09 | 0.335
24 | GUCACUGUCUCAAAUCAGUGAC [hsa-mir-549a] | -0.129 | -0.427 | -1.33 | -0.711 | 0.183
25 | GUCAGGAGUGGCUUUCCUGAC [hsa-mir-4462] | 0.279 | -0.271 | -0.397 | -0.232 | 0.414
26 | GUCAGGUGAUGGUGAUAAGGUCAAGGCCUG [hsa-mir-6853] | 0.388 | -0.0266 | 1.03 | 0.547 | -0.0611
27 | GUCAGUCCCAAUCUGAAUCCCACCAAAAUAGGUGGUAGAGGGUUGC [hsa-mir-4290] | 0.0867 | 0.249 | 0.752 | -1.14 | -0.204
28 | GUCAUUACUUUCAAUAGC [hsa-mir-548p] | -0.684 | -0.254 | -0.372 | 0.0268 | -0.59
29 | GUCAUUUCCCAUCACUAAUGGC [hsa-mir-6815] | -0.873 | -0.336 | -0.881 | -0.92 | -0.674
30 | GUCAUUUUUCUGUGACUGCACAUGGC [hsa-mir-3136] | -0.215 | -0.15 | -0.214 | -0.497 | -0.191
31 | GUCCAUUAGGCUUUGUUAUGGAAACUUCUCCUGAUC [hsa-mir-635] | 0.6 | 0.607 | 0.875 | -0.608 | 0.517
32 | GUCCCAAUACAUGUGGGCC [hsa-mir-586] | -0.22 | -0.158 | -0.294 | -0.0916 | -0.000511
